Bridges are numbered along the chain shown (N, C = ends). Where no end group is shown, it is not given here.
B1: HER2-antagonist peptide (HER2-pep), fluorescein labeled (peptide)
peptide: YCDGFYACYMDV
modifications: disulfide 2-8 (inferred); also: fluorescein label, position not given here
B2: HER2-pep-EG12-PA conjugate on PEG350 coated liposomes (95:10:3:2 HSPC:CHOL:PEG350:HER2-pep) (peptide)
peptide: YCDGFYACYMDV
modifications: disulfide 2-8 (inferred); not fully specified (N-terminus); also: displayed on PEG350-coated liposomes

Experiments:
[1] = biological target: T1, Human Epidermal Growth Factor Receptor 2 (HER2) (human, UniProt P04626 23-1255); experiment: flow cytometry, fluorescein labeled peptide on SK-BR-3 cells, on ice
T1 construct: whole, on cells; also called HER2 receptor
Description: (§1) For HER2 expression assays, cells were incubated with primary antibody in binding buffer on ice for 1 hour and washed twice. Fluorescein conjugated secondary antibody was added for 1 hour on ice, samples were washed, and analyzed on Guava easyCyte 8HT flow cytometer (Millipore). Isotype matched antibodies were used as negative controls. For cell-based peptide binding assays, cells were incubated with increasing concentrations of fluorescein-conjugated peptides for 2 hours on ice. Samples were washed twice and analyzed on Guava easyCyte 8HT flow cytometer.

[2] = biological target: T1, Human Epidermal Growth Factor Receptor …; experiment: flow cytometry, fluorescein labeled peptide on BT-474 cells, on ice
Description: as §1

[3] = biological target: T1, Human Epidermal Growth Factor Receptor …; experiment: cell-based or functional assay

Binder | Kd [1] [nM] | Kd [2] [nM] | cellular uptake of liposomes at 2% peptide density, fold enhancement [3] [fold] | cellular uptake of liposomes by BT-474 and SK-BR-3 cells, 3 h (flow cytometry), fold greater than control [3] [fold] | cellular uptake of liposomes by BT-474 cells at 24 h, fold greater than control liposomes [3] [fold] | cellular uptake of liposomes by SK-BR-3 cells at 24 h, fold greater than control liposomes [3] [fold]
B1 | 1750 | 1970 |  |  |  | 
B2 |  |  | ~10 | ~9 | ~5 | ~4
